Source: patent US20250163168A1, “NOVEL ANTIBODIES AND ANTIBODY CONJUGATES FOR THE TREATMENT OF METABOLIC DISORDERS” (PFIZER INC., priority 2023, published 2025)

Target: biotinylated human FcRn (hFcRn) (human) (UniProt P55899)
Assay: human FcRn affinity column, pH gradient 5.5 to 8.8; retention time relative to the assay control mAb-A (N = 2)

hFcRN Relative Retention Time	Substance
0.8	negative control (polyreactivity assays) (antibody)
4.15	positive control (polyreactivity assays) (antibody)
